Laboratory results: the supplement of paper PMC10567573
± gives the standard deviation.

Assay: protein stability index of a GFP-peptide fusion (GPS, HEK-293T) (PSI 1-6); higher = more stable
[1] = treatment: DMSO, c terminus: a fixed tail appended
[2] = treatment: MLN4924 1 uM, 8 h, c terminus: a fixed tail appended
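Further: 24-mer peptide tiles fused after GFP, lentivirally expressed, FACS-sorted into six equal bins by GFP/DsRed ratio, decoded by Illumina sequencing, PSI is the read-weighted mean bin number.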

| Sequence | protein stability index [1] | protein stability index [2] | protein stability index (treatment: DMSO, c terminus: native) | protein stability index (treatment: MLN4924 1 uM, 8 h, c terminus: native) |
| --- | --- | --- | --- | --- |
| VRKHPAVKEKGSTLDLSDLEAEKL [SCD] | 5.12 ± 0.3 | 4.82 ± 0.14 | – | – |
| CKDSESNKHLCYVFDSEKCVSIPD [GULP1] | 3.27 ± 0.11 | 3.41 ± 0.35 | – | – |
| QLSPSPTPASQSPKKPPAKDPLAD [SNAP91] | 5.49 ± 0.26 | 5.53 ± 0.29 | – | – |
| EHDFLDRDAIEALCRRLNTLNKCA [DLC1] | 2.73 ± 0.36 | 2.73 ± 0.49 | – | – |
| PGFYATYESTLFEDQVPALEAPED [MIA2] | 5.18 ± 0.27 | 4.92 ± 0.36 | – | – |
| AVVVLDQGSRHWQKLREESAARVV [DUSP5] | 2.85 ± 0.34 | 2.72 ± 0.23 | – | – |
| NQMKERQGLFFDMEAYLPKKNGLY [TMEM120A] | 2.65 ± 0.077 | 2.73 ± 0.15 | – | – |
| EEEDLRRRLKYFFMSPCDKFRAKG [MCOLN1] | 2.65 ± 0.41 | 3.15 ± 0.5 | – | – |
| TSYTRQACLVSCFQQLMVETCSCG [SCNN1D] | 2.48 ± 0.53 | 2.31 ± 0.27 | – | – |
| RDVVLCSLLNFLPEGVNKLKISPV [TENT5C] | 2.2 ± 0.44 | 2.02 ± 0.43 | – | – |
| DINGLRRILDELTLCKADLEAQVE [KRT36] | 3.02 ± 0.33 | 3.14 ± 0.25 | – | – |
| VQFHRHHGQEGSILVTKVEEPSKY [GMPPB] | 3.45 ± 0.31 | 3.58 ± 0.27 | – | – |
| MKKGGIFSAEFLKVFIPSLFLSHV [BNIP3L] | 3 ± 1.1 | 2.51 ± 0.56 | – | – |
| VLEQEETAAASRERQEEQSAAIHI [EPB41L3] | 5.33 ± 0.24 | 5.16 ± 0.23 | – | – |
| ISHQQCWASTSPGTDLPLSEIPRG [TRIM15] | 3.51 ± 0.21 | 3.63 ± 0.53 | – | – |
| VEVLGPYEPLLSRVQAALVWERPA [RETREG3] | 2.37 ± 0.39 | 2.48 ± 0.24 | – | – |
| SMVPPSPAMAASKALGSDLDSSLA [SNAP91] | 4.59 ± 0.097 | 4.6 ± 0.26 | – | – |
| IATATEIAYYSYIYSVVDLGMYQK [SLC19A2] | 3.05 ± 0.33 | 2.94 ± 0.51 | – | – |
| KSHFQNSREWSGKEKWWDGQRDRK [PBXIP1] | 3.67 ± 0.26 | 3.98 ± 0.31 | – | – |
| PQAPPASRDEAALPELLLGALPVG [RETREG3] | 4.64 ± 0.087 | 4.67 ± 0.16 | – | – |
| CLRKYGNANVWKYFTDLFDYLPLT [PPP2CA] | 2.4 ± 0.57 | 2 ± 0.31 | – | – |
| MEAADASRSNGSSPEARDARSPSG [TRIM29] | 5.29 ± 0.18 | 5.5 ± 0.091 | – | – |
| CETVTCCLFSERDAAGAPRDASDP [SMAD6] | 4.49 ± 0.25 | 4.62 ± 0.12 | – | – |

| Sequence | protein stability index [1] | protein stability index [2] | protein stability index (treatment: DMSO, c terminus: native) | protein stability index (treatment: MLN4924 1 uM, 8 h, c terminus: native) |
| --- | --- | --- | --- | --- |
| SSSSSSSWLTRRAIRPENRAPGAG [EMD] | 4.33 ± 0.25 | 4.16 ± 0.25 | – | – |
| GAHSNAPITAHAEVEVVEEAKCCC [CSNK1G1] | 4.79 ± 0.22 | 5.23 ± 0.21 | – | – |
| LRTHIDAIILALPEDLQGILLKTG [DENND6A] | 2.17 ± 0.31 | 2.4 ± 0.084 | – | – |
| MGERKGVNKYYPPDFNPEKHGSLN [YJU2B] | 4.11 ± 0.4 | 4.18 ± 0.12 | – | – |
| VLSYLGLLSQEKLQEQHLSSPQGV [BCL2L13] | 2.29 ± 0.31 | 2.32 ± 0.38 | – | – |
| LEDLKDQIAQLEASLAAAKKQLAD [LMNB1] | 5.3 ± 0.12 | 5.21 ± 0.15 | – | – |
| DENREVLQTLLYFLSDVTAAVKEN [DLC1] | 2.14 ± 0.28 | 2.33 ± 0.19 | – | – |
| MSLEPQNGTYAGPAPAFQPFFFTG [ANKRD40] | 2.29 ± 0.35 | 2.15 ± 0.31 | – | – |
| TRCKSSEEKKPGELKRLVESRRQQ [TRIM39] | 5 ± 0.32 | 5.02 ± 0.27 | – | – |
| LSVAPQIGMPFNQLGTLAGSKYYN [SMG5] | 2.67 ± 0.15 | 2.71 ± 0.011 | – | – |
| RITQYLDAGGIPRTAQSEETRVWH [CAMK2A] | 3.03 ± 0.29 | 3.24 ± 0.39 | – | – |
| QKITAIITFPSLESCEEKNQLILT [WDR41] | 2.29 ± 0.16 | 2.22 ± 0.26 | – | – |
| KIKAIMALVAAILLLVIIILIVMK [VAMP4] | 2.47 ± 0.51 | 2.41 ± 0.8 | – | – |
| TMLKAMFSGRMEVLTDSEGWILID [KCTD10] | 2.51 ± 0.57 | 2.75 ± 0.46 | – | – |
| LTLDLPTAPLYKDEKEQLIIPQVP [USP39] | 3.91 ± 0.33 | 3.92 ± 0.25 | – | – |
| VEKEEEPDPEPPPVTPQVGEGRKS [SMG5] | 5.48 ± 0.13 | 5.53 ± 0.21 | – | – |
| NSALKDKEDQFGRTPLMYCVLADR [INVS] | 3.37 ± 0.4 | 3.23 ± 0.37 | – | – |
| GKTDDTLALLNLACMMTITFLPYT [TMEM175] | 3.21 ± 0.33 | 3.08 ± 0.16 | – | – |
| EGYTWRVAQLEDRRSTTDLRGTQF [ZSWIM9] | 3.37 ± 0.55 | 3.28 ± 0.24 | – | – |
| TGLSMIANGGAICAVTFFTILLSY [OR4A15] | 2.85 ± 0.28 | 3.16 ± 0.38 | – | – |
| CWDMQGKRFVAMKVVKSAQHYTET [SRPK2] | 2.34 ± 0.34 | 2.54 ± 0.3 | – | – |
| MSTKESDFLCLLGVSYTFDNEDSE [MIA2] | 2.92 ± 0.14 | 2.91 ± 0.29 | – | – |
| PNYTMEGERPEEGVAGGLNRNQGL [TCF25] | 5.22 ± 0.15 | 5.22 ± 0.37 | – | – |

| Sequence | protein stability index [1] | protein stability index [2] | protein stability index (treatment: DMSO, c terminus: native) | protein stability index (treatment: MLN4924 1 uM, 8 h, c terminus: native) |
| --- | --- | --- | --- | --- |
| NFLFRNAASTLTERPCYNRRASKL [ANKRD40] | 3.19 ± 0.28 | 3.4 ± 0.12 | – | – |
| LLLFLVFVIVLFFIYHFMQAEEGN [EMD] | 2.23 ± 0.15 | 2.42 ± 0.15 | – | – |
| DFDEEYFSNTSELAKDFIRRLLVK [DAPK3] | 2.77 ± 0.28 | 3.12 ± 0.3 | – | – |
| CLMIAAYKGHTDVVRYLLEQRADP [FEM1B] | 2.27 ± 0.14 | 2.35 ± 0.17 | – | – |
| DFEFLAFWQTQYNNMNAVNLFFAW [PKD2L1] | 3.17 ± 0.5 | 2.93 ± 0.55 | – | – |
| QIQRISLNTLTLNVKSEKVYTRHG [FLOT1] | 2.6 ± 0.14 | 3.01 ± 0.25 | – | – |
| DGKRVIVVFHCEFSSERGPRMCRY [CDC25A] | 2.64 ± 0.53 | 2.73 ± 0.78 | – | – |
| EKKLFECLTCGKSFRQGMHLTRHQ [ZNF263] | 2.1 ± 0.41 | 2.27 ± 0.19 | – | – |
| VKRLHEVGRTEPELLVAHAYTRYL [HMOX1] | 2.2 ± 0.26 | 2.4 ± 0.36 | – | – |
| GSHPQQTQKLEEIKENAQDTMRQI [TOR1AIP2] | 5.27 ± 0.26 | 5.38 ± 0.24 | – | – |
| SLTDSVNHHSPGGSSDASGSYSST [ESRRG] | 4.99 ± 0.28 | 5.1 ± 0.15 | – | – |
| GALGMSNRDSYFYAAIVAVVAVHV [VMA21] | 2.77 ± 0.45 | 2.81 ± 0.22 | – | – |
| HRGLRCSWEGLAVLDSLLLTLLPQ [RSAD1] | 3.06 ± 0.41 | 3.07 ± 0.3 | – | – |
| RKDPYGKPVDMWACGVILYILLVG [CAMK2D] | 2.53 ± 0.12 | 3.04 ± 1.1 | – | – |
| SPSSDRVSAIIWEGNECKKMDMSV [PHTF1] | 3.6 ± 0.26 | 3.73 ± 0.43 | – | – |
| VIEAIAQITVKALPKPPGTPVVTE [PTPRD] | 2.3 ± 0.4 | 2.16 ± 0.27 | – | – |
| FTLNPDKKTCRRINYCALNKPGCE [MATN2] | 2.64 ± 0.64 | 2.96 ± 0.45 | – | – |
| SLPQNQCYMATTKSQTACLPFVLA [EHMT1] | 2.35 ± 0.08 | 2.23 ± 0.15 | – | – |
| FVSIAQSEQESLLQQAQAQFRMAQ [SMG5] | 2.68 ± 0.31 | 3.08 ± 0.47 | – | – |
| PSWNGSLKQLLTETDVWFSKQRKD [GMCL1] | 3.27 ± 0.049 | 3.29 ± 0.43 | – | – |
| NIGINGNHSLETCETTLFALRMAT [PTGFR] | 2.34 ± 0.21 | 2.33 ± 0.34 | – | – |
| EFSIDNYPTDNTKVMIFKSSYSLS [MIA2] | 2.75 ± 0.64 | 2.48 ± 0.3 | – | – |
| QDSPGPHEALSRLWELCHLWLRPE [ZNF396] | 2.33 ± 0.14 | 2.15 ± 0.079 | – | – |

| Sequence | protein stability index [1] | protein stability index [2] | protein stability index (treatment: DMSO, c terminus: native) | protein stability index (treatment: MLN4924 1 uM, 8 h, c terminus: native) |
| --- | --- | --- | --- | --- |
| KNGQGFALVYSITAQSTFNDLQDL [RAP1B] | 2.23 ± 0.42 | 2.17 ± 0.45 | – | – |
| HSLRAVSTDPPHHDHHDEFCLMP [BEX1] | – | – | 3 ± 0.6 | 3.76 ± 0.5 |
| LRLFGRVLERAACLRRCKRTLPAF [P3H4] | 2.37 ± 0.46 | 2.16 ± 0.53 | – | – |
| NHFVWRLIPVPMATQIQQLLQDKQ [VPS39] | 2.3 ± 0.44 | 2.16 ± 0.31 | – | – |
| NETQPIDLSGLPLQSSKNSYSFQN [RNF180] | 3.95 ± 0.22 | 3.89 ± 0.18 | – | – |
| ALKDSLRPKLSEEQQRIIAILLDA [VDR] | 2.44 ± 0.2 | 2.44 ± 0.41 | – | – |
| EVNVLNDMRDTPLHRAAFTGRKIC [OSBPL1A] | 3.19 ± 0.089 | 3.26 ± 0.31 | – | – |
| PANVDASVMFRKWRDSKGKDKEYA [UBE2R2] | 4.09 ± 0.27 | 3.95 ± 0.24 | – | – |
| PLMKPHRPWADTCSSSGKDGNLCL [HESX1] | 2.74 ± 0.16 | 2.69 ± 0.21 | – | – |
| DSTKTAFHRSQTLSYRNGYAIVRR [EFHC1] | 3.31 ± 0.12 | 3.48 ± 0.32 | – | – |
| CVATTGDITVSVSTSFLPELSSVH [FBXO3] | 2.23 ± 0.27 | 2.14 ± 0.23 | – | – |
| RATNHLDQVPSMQDGSESFFFRHG [SPAG8] | 3.51 ± 0.1 | 3.62 ± 0.28 | – | – |
| YGGRSVAPQNSFSAKLAPHYFHSI [KCNK9] | 2.23 ± 0.11 | 2.3 ± 0.3 | – | – |
| LEDLESELDDPGQPVSLRRRKREV [ZNF24] | 5.38 ± 0.09 | 5.49 ± 0.16 | – | – |
| GHSQEKTHSREKSSQESGEEAGSQ [CHGB] | 5.52 ± 0.56 | 5.45 ± 0.33 | – | – |
| SSSSASADLLAGFGGSFMAPSPSP [SNAP91] | 4.24 ± 0.1 | 4.3 ± 0.24 | – | – |
| PPVLSFRLVHTTAIEHFQPNADLL [FCHO1] | 2.54 ± 0.15 | 2.17 ± 0.25 | – | – |
| PNRVLAPEQSLKKTKTSEYPIIFV [SPANXN3] | 2.22 ± 0.17 | 2.12 ± 0.34 | – | – |
| ARTCAKQNINAPAPATTSSWEVVR [C22orf31] | 3.04 ± 0.4 | 3.22 ± 0.32 | – | – |
| LMAGCIQEARERWNFDFVTETPLE [CDKN1A] | 2.84 ± 0.67 | 2.92 ± 0.33 | – | – |
